# From US20240083948
# Columns and labels:
# [1] = test system: PKAc, full-length, active (catalytic subunit of Protein Kinase A)
# [2] = test system: T1, ZaTa peptide (Ala-Lys-Arg-Val-Lys-Gly-Arg-Thr-Trp-Thr-Leu-Cys-Gly-Thr-Pro-Glu-Tyr)
# T1 sequence: AKRVKGRTWTLCGTPEY
# [3] = test system: T2, adjacent peptide Gly-Phe-Ala-Lys-Arg-Val-Lys-Gly-Arg-Thr-Trp-Thr-Leu
# T2 sequence: GFAKRVKGRTWTL
# AKT1 (PKB alpha), active = AKT1 (PKB alpha), active (UniProt P31749)
# [4] = target: AKT1 Ser473Asp mutant, active (UniProt P31749)
# Sequence of AKT1 Ser473Asp mutant, active (P31749 whole entry S473D, the tested form may be a part): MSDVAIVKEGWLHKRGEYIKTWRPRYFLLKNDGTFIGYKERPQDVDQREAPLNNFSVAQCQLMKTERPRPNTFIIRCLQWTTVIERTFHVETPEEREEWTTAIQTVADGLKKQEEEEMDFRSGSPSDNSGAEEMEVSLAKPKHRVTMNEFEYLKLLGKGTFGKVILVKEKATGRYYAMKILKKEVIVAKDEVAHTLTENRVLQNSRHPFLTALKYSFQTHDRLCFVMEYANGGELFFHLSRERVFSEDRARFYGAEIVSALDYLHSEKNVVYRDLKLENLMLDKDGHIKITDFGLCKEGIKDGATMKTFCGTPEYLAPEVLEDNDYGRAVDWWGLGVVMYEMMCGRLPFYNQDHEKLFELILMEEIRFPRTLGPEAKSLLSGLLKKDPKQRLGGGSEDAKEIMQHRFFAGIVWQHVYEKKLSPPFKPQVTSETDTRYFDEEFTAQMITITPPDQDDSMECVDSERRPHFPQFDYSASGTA
# [5] = target: AKT1 mutant with a deletion in the PH domain, active (UniProt P31749)
# Sequence of AKT1 mutant with a deletion in the PH domain, active (P31749 whole entry, looked up, stated change not applied, the tested form may be a part): as the sequence (P31749 whole entry S473D, the tested form may be a part) above, with D473S counted along it
# Sequence of AKT1 (PKB alpha), active (P31749 whole entry, looked up): as the sequence (P31749 whole entry S473D, the tested form may be a part) above, with D473S counted along it
substance,measurement,setting,value
"AKT1 (PKB alpha), active","PKA kinase assay, phosphorylation level of DARPP-32 at Thr-34",[1],addition of the active AKT to the PKA kinase assay increased the catalytic activity of PKAc
same,phosphorylation level of PKAc at Thr-197,[1],the increase in the PKAc catalytic activity was accompanied by an increase in the phosphorylation level of PKAc at Thr-197
same,"AKT1 kinase assay, phosphorylation level of Ser-9 GSK-3 GST substrate (western blot)",[2],The phosphorylation level of Ser-9 GSK-3 GST substrate was significantly reduced after adding the ZaTa peptide to the AKT1 kinase assay
same,control kinase reactions that contained the peptide and AKT only,[2],ZaTa peptide itself was not a substrate for AKT
same,AKT1 in vitro catalytic activity (incorporation of γ-32P into Ser-21 GSK-3β substrate peptide),[3],the adjacent overlapping peptide was not able to inhibit AKT1
"PKAc, full-length, active (catalytic subunit of Protein Kinase A)","AKT kinase assay, Ser-9 GSK-3 GST fusion protein as substrate","AKT1 (PKB alpha), active",the kinetic activity of AKT was dramatically reduced
same,"AKT kinase assay, catalytic activity of the AKT1 mutant",[4],The decrease in the catalytic activity of AKT by PKAc was also observed with two mutants and active forms of AKT1 ... the other one with a Ser473Asp mutation
same,"AKT kinase assay, catalytic activity of the AKT1 mutant",[5],"The decrease in the catalytic activity of AKT by PKAc was also observed with two mutants and active forms of AKT1, one with a deletion in the PH domain"
active PKAc purified from bovine tissue,"AKT kinase assay, catalytic activity of AKT","AKT1 (PKB alpha), active",the same inhibitory effect was observed with active PKAc purified from bovine tissue
human PKAc expressed in Sf9 cells,"AKT kinase assay, catalytic activity of AKT","AKT1 (PKB alpha), active",the same inhibitory effect was observed ... with human PKAc expressed in Sf9 cells
